The target in test [1] is human Ang-2 changed at positions 365 and 367 (human) (UniProt O15123). As to the kind of experiment: ELISA. (An ELISA detects its analyte on a solid surface through an enzyme-linked reagent.)
Test [2] concerns the target mouse Angiopoietin-2 (mouse) (UniProt O35608). As to the kind of experiment: ELISA; member tied by Table 16.
Test [3] has as its target human Angiopoietin-2 (human) (UniProt O15123). As to the kind of experiment: inhibition of rhAng-2 binding to its receptor.
For test [4], the target named is human Ang-2 H375Q (human) (UniProt O15123). As to the kind of experiment: ELISA.
Test [5] deals with human Ang-2 V345M (human) (UniProt O15123). As to the kind of experiment: ELISA.
Test [6] concerns the target Mouse/Human Ang-2 StuI chimeric molecule (mouse; human) (UniProt O35608). As to the kind of experiment: ELISA.
Test [7] has as its target T1, Human Ang-1/2 BsmI chimeric molecule (human).
T1 sequence: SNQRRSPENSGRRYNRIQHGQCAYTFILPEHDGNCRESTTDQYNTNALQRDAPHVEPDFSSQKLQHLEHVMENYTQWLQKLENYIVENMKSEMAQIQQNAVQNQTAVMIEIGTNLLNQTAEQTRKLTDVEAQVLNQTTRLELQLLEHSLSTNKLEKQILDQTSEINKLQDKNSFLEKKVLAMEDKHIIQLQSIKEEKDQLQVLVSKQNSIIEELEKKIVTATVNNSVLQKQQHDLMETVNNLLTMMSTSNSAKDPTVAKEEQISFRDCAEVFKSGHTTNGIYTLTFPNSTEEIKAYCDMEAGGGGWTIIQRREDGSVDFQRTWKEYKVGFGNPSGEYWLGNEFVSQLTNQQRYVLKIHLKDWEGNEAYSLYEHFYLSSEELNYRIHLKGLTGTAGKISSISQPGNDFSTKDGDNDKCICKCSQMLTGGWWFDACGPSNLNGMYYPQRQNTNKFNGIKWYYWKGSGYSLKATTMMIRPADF
As to the kind of experiment: ELISA.

In a further test the target is human Ang-2443 (human) (UniProt O15123). As to the kind of experiment: ELISA.
Test [8] concerns the target Mouse/Human chimeric Ang-2 with the human StuI-TfiI fragment (mouse/human chimera) (UniProt O35608). As to the kind of experiment: ELISA.

B1: mAb 6.3.1 (antibody, V domains shown)
VH: QVQLVQSGAEVKKPGASVKVSCKASGYTFTGYFMHWVPQAPGQGLEWMGWINPNSGGTNYAQNFQGRVTMTRDTSISTAYMELSRLRSDDTPVYYCARDPWQNWNSYFDYWGQGTLVTVSS
VL: DIQMTQSPSSLSASVGDRVTITCRASQSIRSYLNWYQQKPGKAPKVLIYAASSLQSGVPSRFSGSGSGTDFTLTISSLQPEDFATYYCQQSYSTLCSFGQGTKLEIKR
As for B1, the % of binding to human Ang-2 in test [1] worked out at 100%.

B2: mAb 5.2.1 (antibody, part only; not given: light chain, V domains shown, part only)
VH: QVQLVESGGGVVQPGRSLRLSCAASGFTFSSYGMHWVRQAPGKGLEWVAVIWFDGFNKYYADSVKGRFTISRDNSKNTLYLQMNSLRAEDTAVYHCARDRGYSGYDHYYGMDVWGQGTTVTVSSA
In test [2], B2 gave a % of immunoreactivity on human Ang-2 of 100%. The molecule further returned an OD650 in inhibition assay in test [3] of 0.069 OD650. Besides, the % of binding to human Ang-2 (in [4]; in test [5]; in test [6]; in test [7]; with human Ang-2443 (human); in test [1]) was 100% in each case. The % of binding to human Ang-2 in test [8] amounted to 100%.

B3: mAb 3.28.1 (antibody, part only; not given: light chain, V domains shown, part only)
VH: EVQLVESGGGLVQPGGSLRLSCAASGFTFSSSWMSWVRQAPGKGLEWVANIKQDGSDKYYVDSVKGRFTISRDNAKNSLYLQMNSLRAEDTAVYYCVRDKGSGWFDYWGQGTLVTVSSA
Consider B3, for which the OD650 in inhibition assay in [3] was found to be 0.0588 OD650. Moreover, the % of binding to human Ang-2 (in test [4]; in test [5]; in test [6]; in [7]; with human Ang-2443 (human); in test [1]) was 100% in each case. In addition, in test [8], the % of binding to human Ang-2 was 31%.

B4: mAb 5.39.1 (antibody, V domains shown)
VH: QVQLVQSGAEVTKPGASVKVSCKASGYTFTAYHMYWVRQAPGQGLEWMGWINPNSGGTNYAQKFQGRVTMTRDTSISTAYMELSRLRSDDSPVYYCARDQGIAAAGPFDYWGQGTLVTVSS
VL: EIVMTQSPATLSVSPGDRATLSCRASQSVSSNFAWYQQKPGQAPRLLIYGSSTRATGIPARFSGSGSGTEFTLTISSLQSEDFAVYYCQQYHYWWTFGQGTKVEFKR
In turn, B4 came in with a % of binding to human Ang-2 in [1] of 100%.

B5: mAb 5.86.1 (antibody, V domains shown)
VH: QVQLVQSGAEVKKPGASVKVSCKASGYTFTGYHMYWVRQAPGQGLEWLGWINPNSGGTNYAQKFQGRVTMTRDTSISTAYMELSRLRSDDTAVYYCVRDQGIAAAGPFDYWCQGTLVTVSS
VL: DIRMTQSPSSLSASVGDRVTITCRASQRISTYLNWYQQKPGKAPKFLIYAASSLQSGVPSRFSGSGSGTDFTLTISSLQPEDFATYYCQQSYTTPFTFGPGTKVDIKR
Turning to B5, the % of binding to human Ang-2 in test [1] turned out to be 100%.

B6: mAb 3.3.2 (antibody, V domains shown)
VH: EVQLVESGGGLVQPGGSLRLSCAVSGFTFSSYWMSWVRQAPGKGLEWVANIKQDGSEKYYVDSVKGRFTISRDNAKNSLYLQMNSLRAEDTAVYYCARDQGIAVAGPFDYWGQGTLVTVSS
VL: EIVMTQSPATLSVSPGERATLSCRASQTVSSDLAWYQQKPGQAPRLLIYGASIRATGIPARFSGSGSGTEFTLTISSLQSEDFAVYSCQQYYNWWTFGQGTKVEIKR
Turning to B6, the % of binding to human Ang-2 in [1] turned out to be 100%.

B7: mAb 5.62.1 (antibody, V domains shown)
VH: EVQLVESGGGLVQPGGSLRLSCAASGFTFSSYWMSWVRQAPGKGLEWVANIKQDGSEKYYVDSVKGRFTISRDNAKNSLYLQMNSLRAEDTAVYYCARDPGIAVAGPFDYWGQGTLVTVSS
VL: EIVMTQSPATLSVSPGERATLSCRASQSVSSNLAWYQQKPGQAPRLLIYGAFTRATGIPARFSGSGSGTEFTLTISSLQSEDFAVYYCQQYNHWWTFGQGTKVGIKR
In test [1], B7 yielded a % of binding to human Ang-2 of 100%.

B8: mAb 5.88.3 (antibody, V domains shown)
VH: EVQMVESGGGLVQPGGSLRLSCAASGFTLRSYWMSWVRQAPGKGLEWVANIKEDGSEKYHVDSVKGRFTISRDNAENSLFLQMSSLRAEDTAVYYCARDMEASAGLFDYWGQGTLVTVSS
VL: EIVMTQSPATLSVSPGERAILSCRASQSISSNLAWYQQKPGQAPRLLIYGASTRATGIPARFSGSGSGTEFTLTISSLQSEDFAVYYCQQYNYWWTFGQGTKVEIKR
Turning to B8, the % of binding to human Ang-2 in [1] came out at 100%.

B9: mAb 5.28.1 (antibody, V domains shown)
VH: EVQLVESGGIVVQPGGSLRLSCAASGFTFDDYTMHWVRQTPGKGLEWVSLISWDGGSTYYADSVKGRFTISRDNSKNSLYLQMNSLRTEDTALYYCAKDIDIAVAGTGFDHWGQGTLVTVSS
VL: EIVMTQSPATLSVSPGERATLSCRASQSVTSNLAWYQQKPGQAPRLLIYGALIRATGIPARFSGSGSGTEFTLTISSLQSEDFAVYYCQQYNNWPFTFGPGTKVDIKR
In [1], B9 showed a % of binding to human Ang-2 of 100%.
